# Assay results as given in the supplement of paper PMC10567573.
# B1: LYSMD4 (parent)
# chain: LLQRELAQEDSLNKLALQYGCKVA
# Variants of: B1
# Experiment: protein stability index of a GFP-peptide fusion (GPS, HEK-293T) (PSI 1-6); higher = more stable
# Conditions: c terminus: a fixed tail appended
# 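Further: lentivirally expressed fusions sorted by FACS into six bins by GFP to DsRed ratio, PSI derived from sequencing read proportions per bin multiplied by bin number.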
row,Variant,protein stability index
1,LLQRELAQEDSLNKLALQYVCKVA [G20V],1.31
2,LLQRELAQEDSLNKLALQYECKVA [G20E],1.7
3,LLQRELAQEDSLNKLALQYACKVA [G20A],1.09
4,LLQRELAQEDSLNKLALQYFCKVA [G20F],1.13
5,LLQRELAQEDSLNKLALQYICKVA [G20I],2.42
6,LLQRELAQEDSLNKLALQYCCKVA [G20C],1.65
7,LLQRELAQEDSLNKLALQYNCKVA [G20N],2.37
8,LLQRELAQEDSLNKLALQYQCKVA [G20Q],4.53
9,LLQRELAQEDSLNKLALQYWCKVA [G20W],3.05
10,LLQRELAQEDSLNKLALQYMCKVA [G20M],3.62
11,LLQRELAQEDSLNKLDLQYGCKVA [A16D],3.12
12,LLQRELAQEDSLNKLKLQYGCKVA [A16K],2.48
13,LLQRELAQEDSLNKLILQYGCKVA [A16I],2.66
14,LLQRELAQEDSLNKLSLQYGCKVA [A16S],1.98
15,LLQRELAQEDSLNKLYLQYGCKVA [A16Y],1.26
16,LLQRELAQEDSLNKLRLQYGCKVA [A16R],1.9
17,LLQRELAQEDSLNKLHLQYGCKVA [A16H],3.4
18,LLQRELAQEDSLNKLELQYGCKVA [A16E],1.65
19,LLQRELAQEDSLNKLTLQYGCKVA [A16T],1.78
20,LLQRELAQEDSLNKLNLQYGCKVA [A16N],1.98
21,LLQRELAQEDSLNKLQLQYGCKVA [A16Q],1.86
22,LLQRELAQEDSLNKLGLQYGCKVA [A16G],2.18
23,LLQRELAQEDSLNKLAVQYGCKVA [L17V],2.06
24,LLQRELAQEDSLNKLAQQYGCKVA [L17Q],2.12

row,Variant,protein stability index
1,LLQRELAQEDSLNKLAYQYGCKVA [L17Y],1.18
2,LLQRELAQEDSLNKLAKQYGCKVA [L17K],2.5
3,LLQRELAQEDSLNKLAPQYGCKVA [L17P],2.98
4,LLQRELAQEDSLNKLACQYGCKVA [L17C],1.49
5,LLQRELAQEDSLNKLAFQYGCKVA [L17F],3.31
6,LLQRELAQEDSLNKLAAQYGCKVA [L17A],1.84
7,LLQRELAQEDSLNKLATQYGCKVA [L17T],1.09
8,LLQRELAQEDSLNKLAHQYGCKVA [L17H],2.29
9,LLQRELAQEDSLNKLAIQYGCKVA [L17I],1.45
10,LLQRELAQEDSLNKLAGQYGCKVA [L17G],2.98
11,LLQRELAQEDSLNKLAWQYGCKVA [L17W],2.65
12,LLQRELAQEDSLNKLANQYGCKVA [L17N],1.57
13,LLQRELAQEDSLNKLAEQYGCKVA [L17E],1.82
14,LLQRELAQEDSLNKLALQYGCKEA [V23E],3.4
15,LLQRELAQEDSLNKLALQYGCKMA [V23M],1.75
16,LLQRELAQEDSLNKLALQYGCKLA [V23L],2.04
17,LLQRELAQEDSLNKLALQYGCKTA [V23T],2.58
18,LLQRELAQEDSLNKLALQYGCKCA [V23C],1.83
19,LLQRELAQEDSLNKLALQYGCKGA [V23G],2.35
20,LLQRELAQEDSLNKLALQYGCKSA [V23S],2.9
21,LLQRELAQEDSLNKLALQYGCKRA [V23R],2.47
22,LLQRELAQEDSLNKLALQYGCKFA [V23F],2.96
23,LLQRELAQEDSLNKLALQYGCKYA [V23Y],2.45
24,LLQRELAQEDSLNKLALQYGCKKA [V23K],2.92

row,Variant,protein stability index
1,LLQRELAQEDSLNKLALQYGCKWA [V23W],2.34
2,LLQRELAQEDSLNKLALQYGCKIA [V23I],1.89
3,LLQRELAQEDSLNKLALQYGCKHA [V23H],2.77
4,LLQRELAQEDSLNKLALQYGCKNA [V23N],3.62
5,LLQRELAQEDSLNKLALQYGCKAA [V23A],3.18
6,LLQRELAQEDSLNKLALQYGCKPA [V23P],3.4
7,LLQRELAQEDSLNKLALQNGCKVA [Y19N],3.4
8,LLQRELAQEDSLNKLALQTGCKVA [Y19T],3.17
9,LLQRELAQEDSLNKLALQFGCKVA [Y19F],2.06
10,LLQRELAQEDSLNKLALQVGCKVA [Y19V],2.02
11,LLQRELAQEDSLNKLALQLGCKVA [Y19L],2.34
12,LLQRELAQEDSLNKLALQQGCKVA [Y19Q],3.78
13,LLQRELAQEDSLNKLALQIGCKVA [Y19I],1.59
14,LLQRELAQEDSLNKLALQSGCKVA [Y19S],3.13
15,LLQRELAQEDSLNKLALQPGCKVA [Y19P],3.28
16,LLQRELAQEDSLNKLALQKGCKVA [Y19K],2.11
17,LLQRELAQEDSLNKLALQDGCKVA [Y19D],4.57
18,LLQRELAQEDSLNKLALQRGCKVA [Y19R],1.85
19,LLQRELAQEDSLNKLALQCGCKVA [Y19C],1.66
20,LLQRELAQEDSLNKLALQAGCKVA [Y19A],3.17
21,LLQRELAQEDSLNKLALQMGCKVA [Y19M],2.02
22,LLQRELAQEDSLNKYALQYGCKVA [L15Y],2.27
23,LLQRELAQEDSLNKLALQYGCKVT [A24T],2.19
24,LLQRELAQEDSLNKLALQYGCKVN [A24N],1.98

row,Variant,protein stability index
1,LLQRELAQEDSLNKLALQYGCKVV [A24V],3.02
2,LLQRELAQEDSLNKLALQYGCKVP [A24P],2.64
3,LLQRELAQEDSLNKLALQYGCKVC [A24C],3.03
4,LLQRELAQEDSLNKLALQYGCKVR [A24R],1.95
5,LLQRELAQEDSLNKLALQYGCKVG [A24G],2.1
6,LLQRELAQEDSLNKLALQYGCKVD [A24D],2.37
7,LLQRELAQEDSLNKLALQYGCKVK [A24K],1.82
8,LLQRELAQEDSLNKLALQYGCKVH [A24H],1.03
9,LLQRELAQEDSLNKLALQYGCKVW [A24W],4.48
10,LLQRELAQEDSLNKLALQYGCKVY [A24Y],2.75
11,LLQRELAQEDSLNKLALTYGCKVA [Q18T],1.18
12,LLQRELAQEDSLNKLALEYGCKVA [Q18E],2.65
13,LLQRELAQEDSLNKLALNYGCKVA [Q18N],3.62
14,LLQRELAQEDSLNKLALSYGCKVA [Q18S],1.74
15,LLQRELAQEDSLNKLALVYGCKVA [Q18V],2.25
16,LLQRELAQEDSLNKLALPYGCKVA [Q18P],2.95
17,LLQRELAQEDSLNKLALAYGCKVA [Q18A],1.65
18,LLQRELAQEDSLNKLALWYGCKVA [Q18W],2.51
19,LLQRELAQEDSLNKLALMYGCKVA [Q18M],1.72
20,LLQRELAQEDSLNKLALYYGCKVA [Q18Y],2.22
21,LLQRELAQEDSLNKLALIYGCKVA [Q18I],2.4
22,LLQRELAQEDSLNKLALKYGCKVA [Q18K],2.42
